We go through 11 molecules from PMC8902620, “Oligomerization of DNA replication regulatory protein RADX is essential to maintain replication fork stability” (The Journal of Biological Chemistry, 2022).

Positions count from the first letter of the chain named. Names may count otherwise.

Series [1] deals with the molecule itself. Briefly: SEC; purified MBP-RADX on Superdex 200 Increase 10/300 GL; peak fractions pooled and reapplied; 50 mM Tris pH 7.5, 300 mM NaCl, 10% glycerol, 1 mM DTT; size by molecular weight standards.
Series [2] addresses T1, full-length RADX, wild type, tagged with mCherry-FLAG or with GFP-HA (human, UniProt Q6NSI4 1-855).
T1 construct: RADX (cxorf57), human, full length; Two differently tagged copies of the same protein, written as one molecule; The GFP-HA copy is the one captured on GFP beads in the tests with purified proteins; The mCherry-FLAG copy is the one fished out there, and is the bait of the FLAG co-IP from lysate; also called mCherry-FLAG-RADX; m-Cherry-FLAG-RADX; source: HEK293T, transfected, in lysate; HEK293T, …
Briefly: co-IP; purified mCherry-FLAG proteins mixed with purified GFP-HA-RADX and captured on GFP-trap magnetic agarose beads, 1 h at 4 °C; 50 mM Tris pH 7.5, 250 mM NaCl, 10% glycerol, 0.05% NP-40; immunoblot. Conditions: both partners purified.

B1: MBP-RADX (maltose-binding protein-tagged RADX) (natural protein, human, UniProt Q6NSI4 1-855, looked up)
chain: MSGESGQPEAGPSHAGLDWPNPERNRAGVPGGVIRRAGSQGPRSWIQKVLEQIMDSPRQCVTPSEVVPVTVLAVQRYLLEDEPRDTVPKPPLYCYDVTISDGVYQEKCYLDPSLNSLVYQNILKVGIQMRISRVSCLYNEKRIGQGILCIDNVHCGETSDSISLETPFRNRAHQEKPERPLRGGKSHYLALWNNEDPYGDIWLTDKQPEEHNFSDTKIISLSHLEMTWTNRRNFPALLVRILHKSKLRYYGKPDKKMIEPYQTFLEVADSSGTVSVIMWNALCPEWYKSLRVGLVLLLQDYSVKKSYPFRIQPVPVDPQIKLISTMEICLNLRDPPTNIIIIPEKQVKPEWRLPKLNHRFTTRSELDDMPENCICDVIGLLVFVGRVQRSKKKENREDFWSYRWIHIADGTSEQPFIVELFSTSQPEIFENIYPMAYFVCTQLKVVRNDNQVPKLLYLTTTNESGVFITGHRGQPYTYDAKVKNFIQWIRTKSDSGEQKNMVIGGYYPYPPVPETFSKYSSSIKVESLLTAISEVRKEIEDLQYREQKRIAIQGIITAIKYIPHSSATESASASETLRNANRPSTSQAARVEIQERNGKRHQDDEPVNSQYFQTTSTNLSLSNKIRILQGPHANPVAVPQPGASVQTKGIKPGMPSIFNRRANINANLQGKARKTISDRWESQLWREKKFGLIDHLHYSRVYPESIPRKFMFEHRKFLSDQYNSQPAKYVPPEGRPPKLDDFKSARSLGHFEVTILGLNHEIAIDVAFLPMYCPEDIRTSQIDTLLTSMNYSCAYPQDTTGNDRLPGPRAVAGDIIKAATELDRVHIVGILDICNLGNNKVEVYLHKIYSPENTS
notes: RADX (cxorf57), human; also called MBP-tagged RADX; cxorf57; source: insect cells, purified
As for B1, the “stoichiometry N” value in series [1] was roughly 2.

B2: mCherry-FLAG-RADX KIY to DIA (residues 847–849) (natural protein, human, UniProt Q6NSI4 1-855, looked up)
chain: B1 chain with K847D, Y849A
notes: also called pTM114; source: HEK293T, purified (anti-FLAG M2 beads, 3x FLAG peptide, Superdex 200)
For the molecule B2, in series [2], the binding result was “binds”.

B3: mCherry-FLAG-RADX KVEV to DVKV (residues 840–843) (natural protein, human, UniProt Q6NSI4 1-855, looked up)
chain: B1 chain with K840D, E842K
notes: The results print residues 840 to 844, the methods 840–843; also called pTM113; source: HEK293T, purified (anti-FLAG M2 beads, 3x FLAG peptide, Superdex 200)
As to B3, the binding result in series [2] is reported as “binds”.

B4: mCherry-FLAG-RADX K847D (natural protein, human, UniProt Q6NSI4 1-855, looked up)
chain: B1 chain with K847D
notes: RADX, human, full length with one point mutation; also called K847D RADX; pTM157; source: HEK293T, purified (anti-FLAG M2 beads, 3x FLAG peptide, Superdex 200)
As to B4, the binding result in series [2] is listed as “binds”.

B5: mCherry-FLAG-RADX K840D (natural protein, human, UniProt Q6NSI4 1-855, looked up)
chain: B1 chain with K840D
notes: RADX, human, full length with one point mutation; also called pTM155; source: HEK293T, purified (anti-FLAG M2 beads, 3x FLAG peptide, Superdex 200)
For B5, the binding result in series [2] is “binds”.

B6: mCherry-FLAG-RADX NHEI to AAAA (residues 759–762) (natural protein, human, UniProt Q6NSI4 1-855, looked up)
chain: B1 chain with N759A, H760A, E761A, I762A
notes: also called pTM109; source: HEK293T, purified (anti-FLAG M2 beads, 3x FLAG peptide, Superdex 200)
For B6, in series [2], the binding result is recorded as “binds”.

B7: mCherry-FLAG-RADX Y849A (natural protein, human, UniProt Q6NSI4 1-855, looked up)
chain: B1 chain with Y849A
notes: RADX, human, full length with one point mutation; also called pTM158; source: HEK293T, purified (anti-FLAG M2 beads, 3x FLAG peptide, Superdex 200)
B7: the binding result in series [2] is “binds”.

B8: mCherry-FLAG-RADX E842K (natural protein, human, UniProt Q6NSI4 1-855, looked up)
chain: B1 chain with E842K
notes: RADX, human, full length with one point mutation; also called E842K RADX; pTM156; source: HEK293T, purified (anti-FLAG M2 beads, 3x FLAG peptide, Superdex 200)
B8: the binding result in series [2] was “binds”.

B9: mCherry-FLAG-RADX N-terminal fragment (2–675) (domain or fragment, human, UniProt Q6NSI4 2-675, looked up)
chain: SGESGQPEAGPSHAGLDWPNPERNRAGVPGGVIRRAGSQGPRSWIQKVLEQIMDSPRQCVTPSEVVPVTVLAVQRYLLEDEPRDTVPKPPLYCYDVTISDGVYQEKCYLDPSLNSLVYQNILKVGIQMRISRVSCLYNEKRIGQGILCIDNVHCGETSDSISLETPFRNRAHQEKPERPLRGGKSHYLALWNNEDPYGDIWLTDKQPEEHNFSDTKIISLSHLEMTWTNRRNFPALLVRILHKSKLRYYGKPDKKMIEPYQTFLEVADSSGTVSVIMWNALCPEWYKSLRVGLVLLLQDYSVKKSYPFRIQPVPVDPQIKLISTMEICLNLRDPPTNIIIIPEKQVKPEWRLPKLNHRFTTRSELDDMPENCICDVIGLLVFVGRVQRSKKKENREDFWSYRWIHIADGTSEQPFIVELFSTSQPEIFENIYPMAYFVCTQLKVVRNDNQVPKLLYLTTTNESGVFITGHRGQPYTYDAKVKNFIQWIRTKSDSGEQKNMVIGGYYPYPPVPETFSKYSSSIKVESLLTAISEVRKEIEDLQYREQKRIAIQGIITAIKYIPHSSATESASASETLRNANRPSTSQAARVEIQERNGKRHQDDEPVNSQYFQTTSTNLSLSNKIRILQGPHANPVAVPQPGASVQTKGIKPGMPSIFNRRANINANLQGKARKT
notes: also called pTM59; source: HEK293T, purified (anti-FLAG M2 beads, 3x FLAG peptide, Superdex 200)
For the molecule B9, the binding result in series [2] is reported as “binds”.

B10: mCherry-FLAG-RADX domain 5 (744–855) (domain or fragment, human, UniProt Q6NSI4 744-855, looked up)
chain: SARSLGHFEVTILGLNHEIAIDVAFLPMYCPEDIRTSQIDTLLTSMNYSCAYPQDTTGNDRLPGPRAVAGDIIKAATELDRVHIVGILDICNLGNNKVEVYLHKIYSPENTS
notes: also called pTM44; source: HEK293T, purified (anti-FLAG M2 beads, 3x FLAG peptide, Superdex 200)
Consider B10, for which the binding result in series [2] is given as “binds”.

B11: mCherry-FLAG-RADX C-terminal fragment (675–855) (domain or fragment, human, UniProt Q6NSI4 675-855, looked up)
chain: TISDRWESQLWREKKFGLIDHLHYSRVYPESIPRKFMFEHRKFLSDQYNSQPAKYVPPEGRPPKLDDFKSARSLGHFEVTILGLNHEIAIDVAFLPMYCPEDIRTSQIDTLLTSMNYSCAYPQDTTGNDRLPGPRAVAGDIIKAATELDRVHIVGILDICNLGNNKVEVYLHKIYSPENTS
notes: also called pTM67; source: HEK293T, purified (anti-FLAG M2 beads, 3x FLAG peptide, Superdex 200)
Regarding B11, the binding result in series [2] is “binds”.
